Measurements taken from the supplement of paper PMC10567573.
± gives the standard deviation.

Assay: protein stability index of a GFP-peptide fusion (GPS, HEK-293T) (PSI 1-6); higher = more stable
Conditions: c terminus: a fixed tail appended
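Also: 24-mer peptide tiles fused after GFP, lentivirally expressed, FACS-sorted into six equal bins by GFP/DsRed ratio, decoded by Illumina sequencing, PSI is the read-weighted mean bin number.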

Sequence | protein stability index (treatment: DMSO) | protein stability index (treatment: MLN4924 1 uM, 8 h)
PAICALRHLTSRHQEAEMAQNAVR [CTNNB1] | 3.2 ± 0.5 | 3.67 ± 0.32
TALGGQCVDRQEVAEITKQLPPVV [TCAP] | 4.07 ± 0.25 | 4.27 ± 0.13
KSTMDAISAEGFTDIDIDTLCAVL [BTBD1] | 2.21 ± 0.22 | 2.33 ± 0.3
KATFMYEQFPELMNMLWSRMLKDN [CLINT1] | 2.28 ± 1.1 | 2.37 ± 0.4
KQILDGVHYLHSKRIAHFDLKPEN [DAPK3] | 2.91 ± 0.18 | 3.19 ± 0.26
VRDGFSATFEKILESELLRGTQYS [PSD2] | 2.29 ± 0.35 | 2.31 ± 0.12
VTDINDNAPKFQAENLDVKINENV [PCDHGA10] | 5.22 ± 0.1 | 5.01 ± 0.37
PRPRRAKRFASLSRFVETLVVADD [ADAMTS4] | 3.65 ± 0.45 | 3.69 ± 0.12
SRGELIPISPSTEVGGSGIGTPPS [MYBL2] | 4.74 ± 0.28 | 4.8 ± 0.15
EEHSLEQVQSMVVGEVLKDIETAC [SPDEF] | 4.8 ± 0.26 | 4.85 ± 0.091
LKPNNLSCDLPEERYRHEIAHDGQ [KLHDC10] | 4.8 ± 0.2 | 4.8 ± 0.074
KTLQPTKQPNCSSLFKLKPLSNKT [PLD5] | 3.08 ± 0.17 | 3.09 ± 0.35
FEPVKSFFKGLVEAVESTLQTPLD [TRIM14] | 2.19 ± 0.2 | 2.4 ± 0.23
MKALLGSYAHSVEDTHVQIGQVHE [FCHO1] | 3.62 ± 0.091 | 3.6 ± 0.25
NSRRNINYRSFEPILRLLPQGISP [ZER1] | 2.3 ± 0.2 | 2.54 ± 0.17
CWYCNRDFDDEKILIQHQKAKHFK [ZNF207] | 4.59 ± 0.39 | 4.45 ± 0.22
LENDTISKQLTLEQLRREKIDLEN [CCDC6] | 4.96 ± 0.27 | 4.88 ± 0.23
YVDIQGLTASTMEILLDFVYTETV [KLHL12] | 3.564 ± 0.008 | 3.1 ± 1.2
AHRTEFYRNLTHNPPSDFSFQNMN [STK38L] | 2.84 ± 0.34 | 2.88 ± 0.24
SRGSPVRVKREFEPASAREAPASV [USP39] | 4.47 ± 0.32 | 4.49 ± 0.35
LNGLQHLKAKKVWYDMFRDAAAIL [ZMAT5] | 2.63 ± 0.56 | 2.49 ± 0.34
RVQVQVVERAQQVAVQEQEIARRE [FLOT1] | 5 ± 0.43 | 4.76 ± 0.67
